One may read the Kd as the concentration at which binding is half-saturated.

Targets include HLA-A*02:06; HLA-A*68:01; HLA-A*03:01; HLA-A*31:01; HLA-A*33:01; HLA-A*11:01.
Common to all, as to test: IEDB peptide-MHC binding, purified MHC/competitive/radioactivity; filed as Kd, often an IC50 or EC50 that approximates it; ≥ and ≤ were set here for values at or beyond the usual limits of such assays
For another experiment, the target named is HLA-A*02:02. Particulars: source organism: Vaccinia virus WR.
The target of another experiment is HLA-A*02:03. The following applies: source organism: Vaccinia virus WR.
The mark [1] stands for this setting: source organism: Vaccinia virus WR.
Setting [2] is: source organism: Lassa virus Josiah.
Setting [3] is: source organism: Mammarenavirus juninense.
Setting [4] is: source organism: Mammarenavirus brazilense.
Where [5] appears, read: source organism: SARS coronavirus Tor2.

Bounds are passed on as bounds.

Turning to FMSHVKSVT, the figures for the Kd with HLA-A*02:02, in the experiment with HLA-A*02:03 and with HLA-A*02:06 (setting [1]) were 0.508 µM, 0.181 µM and 4.32 µM, respectively.

With FVFDRPLPV, the Kd with HLA-A*02:06 (source organism: Homo sapiens) was determined as 0.00238 µM.

In the case of VVDTFISYNR, the Kd in the experiment with HLA-A*68:01 (setting [1]) came out at 0.0805 µM; with HLA-A*03:01 (setting [1]), 2.54 µM; with HLA-A*31:01 (setting [1]), 0.0252 µM; with HLA-A*33:01 (setting [1]), 0.101 µM; with HLA-A*11:01 (setting [1]), 0.343 µM.

Take LSLSNLDFR: the Kd with HLA-A*68:01 (setting [1]) was 0.3 µM; with HLA-A*03:01 (setting [1]) it was at least 78 µM; in the experiment with HLA-A*31:01 (setting [1]), 0.0217 µM; with HLA-A*33:01 (setting [1]) it was 0.675 µM; in the experiment with HLA-A*11:01 (setting [1]), 0.349 µM.

Consider FIDRGSIKIK, for which the Kd was determined as 0.86 µM with HLA-A*68:01 (setting [1]); 0.495 µM in the experiment with HLA-A*03:01 (setting [1]); 2.23 µM with HLA-A*31:01 (setting [1]); 3.96 µM in the experiment with HLA-A*33:01 (setting [1]); 0.708 µM with HLA-A*11:01 (setting [1]).

With DSIKDVIHDY, the Kd with HLA-A*68:01 (setting [1]) is 10.2 µM; with HLA-A*03:01 (setting [1]) it was at least 70.1 µM; in the experiment with HLA-A*31:01 (setting [1]), 15.4 µM; with HLA-A*33:01 (setting [1]), at least 70 µM; in the experiment with HLA-A*11:01 (setting [1]) it was 5.14 µM.

Regarding SMLTNAISSR, the Kd stood at 0.218 µM in the experiment with HLA-A*68:01 (setting [1]); 0.505 µM in the experiment with HLA-A*03:01 (setting [1]); 0.117 µM in the experiment with HLA-A*31:01 (setting [1]); 2.33 µM with HLA-A*33:01 (setting [1]); 0.258 µM with HLA-A*11:01 (setting [1]).

CLEWLRAKRK: the Kd is at least 57.3 µM in the experiment with HLA-A*68:01 (setting [1]); 1 µM with HLA-A*03:01 (setting [1]); 2.72 µM in the experiment with HLA-A*31:01 (setting [1]); 11.3 µM in the experiment with HLA-A*33:01 (setting [1]); 19.5 µM with HLA-A*11:01 (setting [1]).

Take DVQRTRCKY: the Kd with HLA-A*68:01 (setting [1]) was 9.19 µM; with HLA-A*03:01 (setting [1]), at least 53.9 µM; with HLA-A*31:01 (setting [1]) it was at least 77.9 µM; with HLA-A*33:01 (setting [1]), at least 35.3 µM; in the experiment with HLA-A*11:01 (setting [1]), at least 77.9 µM.

As to THLGPQFCK, the Kd with HLA-A*68:01 (setting [2]) was 0.338 µM; with HLA-A*03:01 (setting [2]), 0.88 µM; with HLA-A*31:01 (setting [2]), 15.9 µM; in the experiment with HLA-A*33:01 (setting [2]) it was at least 77.7 µM; with HLA-A*11:01 (setting [2]), 0.284 µM.

KSVTKSSSWK: the dissociation constant (Kd) in the experiment with HLA-A*68:01 (setting [1]) is 0.079 µM; with HLA-A*03:01 (setting [1]), 0.01 µM; with HLA-A*31:01 (setting [1]), 0.376 µM; in the experiment with HLA-A*33:01 (setting [1]), at least 55.7 µM; with HLA-A*11:01 (setting [1]), 0.0138 µM.

Take KSPLPSLEY: the dissociation constant (Kd) in the experiment with HLA-A*68:01 (setting [1]) is at least 77.7 µM; with HLA-A*03:01 (setting [1]), 0.278 µM; with HLA-A*31:01 (setting [1]) it was 7.39 µM; with HLA-A*33:01 (setting [1]), at least 77.7 µM; with HLA-A*11:01 (setting [1]), 0.228 µM.

With NTIDKSSPLY, the Kd was 0.0854 µM in the experiment with HLA-A*68:01 (setting [1]); 7.97 µM with HLA-A*03:01 (setting [1]); at least 70 µM with HLA-A*31:01 (setting [1]); at least 70 µM with HLA-A*33:01 (setting [1]); 1.66 µM with HLA-A*11:01 (setting [1]).

For the sequence PAAEFRRVAH, the Kd with HLA-A*68:01 (setting [3]) was at least 70.1 µM; with HLA-A*03:01 (setting [3]), at least 70 µM; with HLA-A*31:01 (setting [3]) it was 9.34 µM; with HLA-A*33:01 (setting [3]), at least 24.4 µM; in the experiment with HLA-A*11:01 (setting [3]), at least 69.7 µM.

Regarding TFKIDAVRYY, the Kd with HLA-A*68:01 (setting [1]) was 1.43 µM; with HLA-A*03:01 (setting [1]), at least 70.1 µM; with HLA-A*31:01 (setting [1]) it was at least 20.7 µM; with HLA-A*33:01 (setting [1]) it was at least 43.4 µM; with HLA-A*11:01 (setting [1]) it was 12.1 µM.

On to SNSKEIPSFR, for which the Kd is 0.315 µM with HLA-A*68:01 (setting [4]); at least 33.3 µM with HLA-A*03:01 (setting [4]); 0.65 µM with HLA-A*31:01 (setting [4]); 0.54 µM with HLA-A*33:01 (setting [4]); 1.88 µM with HLA-A*11:01 (setting [4]).

With DADPPIPYSR, the equilibrium dissociation constant (Kd) with HLA-A*68:01 (setting [1]) was 0.509 µM; with HLA-A*03:01 (setting [1]), at least 70.1 µM; in the experiment with HLA-A*31:01 (setting [1]), 10.1 µM; in the experiment with HLA-A*33:01 (setting [1]) it was 2.69 µM; with HLA-A*11:01 (setting [1]), 16.4 µM.

Consider LLIWAYLSKK, for which the Kd in the experiment with HLA-A*68:01 (setting [1]) turned out to be 0.363 µM; with HLA-A*03:01 (setting [1]), 0.0421 µM; with HLA-A*31:01 (setting [1]) it was 1.98 µM; with HLA-A*33:01 (setting [1]), 2.34 µM; with HLA-A*11:01 (setting [1]) it was 0.124 µM.

Turning to VSMTYLYNKY, the Kd is at least 70.2 µM with HLA-A*68:01 (setting [1]); 15.4 µM in the experiment with HLA-A*03:01 (setting [1]); at least 28.9 µM with HLA-A*31:01 (setting [1]); at least 70 µM in the experiment with HLA-A*33:01 (setting [1]); 0.0965 µM with HLA-A*11:01 (setting [1]).

With AVLDDGIYRI, the equilibrium dissociation constant (Kd) with HLA-A*02:06 (source organism: Dengue virus 1 Brazil/97-11/1997) came out at 0.0105 µM.

Turning to AVFKNSFLGK, the Kd is at least 70.1 µM in the experiment with HLA-A*68:01 (source organism: Variola virus); at least 70 µM with HLA-A*03:01 (source organism: Variola virus); at least 70 µM with HLA-A*31:01 (source organism: Variola virus); at least 70 µM in the experiment with HLA-A*33:01 (source organism: Variola virus); at least 69.7 µM in the experiment with HLA-A*11:01 (source organism: Variola virus).

On to WVSLKKTNDK, for which the Kd is at least 45.5 µM with HLA-A*68:01 (setting [1]); 2.09 µM in the experiment with HLA-A*03:01 (setting [1]); at least 32.7 µM with HLA-A*31:01 (setting [1]); at least 70 µM with HLA-A*33:01 (setting [1]); 0.608 µM with HLA-A*11:01 (setting [1]).

Turning to ALCEKALKY, the Kd in the experiment with HLA-A*68:01 (setting [5]) was 13 µM; in the experiment with HLA-A*03:01 (setting [5]) it was 0.234 µM; with HLA-A*31:01 (setting [5]), at least 65.1 µM; in the experiment with HLA-A*33:01 (setting [5]) it was at least 35.8 µM; with HLA-A*11:01 (setting [5]), 1.44 µM.

These data come from the Immune Epitope Database (IEDB).
